Where two headings read alike, the source gives them in different places.
Legend:
[1] = target: T1, Protein Interacting with C Kinase-1 (PICK1), purified recombinant, Q9EP80; assay: fluorescence polarization competition, tracer 5-FAM-TAT-C5, purified PICK1
[2] = target: T2, fluorescently labelled recombinant rat PICK1 (DY549-SNAP-PICK1) (rat), Q9EP80
[3] = target: T2, fluorescently labelled recombinant rat …; assay: SCMS, dissociation of PICK1 pre-bound to TacDAT C24 sheets by peptide
[4] = target: T1, Protein Interacting with C Kinase-1 …; assay: fluorescence polarization competition, tracer 5FAM-TAT-(C5), purified PICK1

T1 sequence (Q9EP80 whole entry): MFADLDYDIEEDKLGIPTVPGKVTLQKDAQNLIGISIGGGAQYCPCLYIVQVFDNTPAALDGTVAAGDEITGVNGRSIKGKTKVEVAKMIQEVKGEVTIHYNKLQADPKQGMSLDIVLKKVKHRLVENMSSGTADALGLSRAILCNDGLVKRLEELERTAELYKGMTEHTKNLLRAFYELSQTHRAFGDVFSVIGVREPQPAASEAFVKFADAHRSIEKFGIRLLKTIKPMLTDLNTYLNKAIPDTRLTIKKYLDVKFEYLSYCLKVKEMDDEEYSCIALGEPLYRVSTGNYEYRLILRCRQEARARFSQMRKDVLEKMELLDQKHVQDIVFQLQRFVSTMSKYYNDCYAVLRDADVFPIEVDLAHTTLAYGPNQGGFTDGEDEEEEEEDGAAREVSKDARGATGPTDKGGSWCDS
T2 sequence (Q9EP80 whole entry): as above

Binder	Fold affinity change (vs TAT-P4-(C5)2) [1] [fold]	Ki [1] [nM]	IC50 [2] [nM]	IC50 [3] [nM]	Ki [4] [nM]	fold shift in affinity [4] [fold]
TP10-P4-(C5)2 (modifications not checked) peptide 1: HWLKV peptide 2: […]	0.5	7.8				
TAT11-PEG4-(DATC5)2 (modifications not checked) peptide 1: HWLKV peptide 2: YGRKKRRQRRR	1	4	7	1170	6.6	301
